Data on 3 molecules can be found in article PMC8956589, “Crystal structure of progeria mutant S143F lamin A/C reveals increased hydrophobicity driving nuclear deformation” (Communications Biology, 2022).

B1: wild-type lamin A/C fragment (residues 1–300) (domain or fragment, human, UniProt P02545 1-300, looked up)
chain: METPSQRRATRSGAQASSTPLSPTRITRLQEKEDLQELNDRLAVYIDRVRSLETENAGLRLRITESEEVVSREVSGIKAAYEAELGDARKTLDSVAKERARLQLELSKVREEFKELKARNTKKEGDLIAAQARLKDLEALLNSKEAALSTALSEKRTLEGELHDLRGQVAKLEAALGEAKKQLQDEMLRRVDAENRLQTMKEELDFQKNIYSEELRETKRRHETRLVEIDNGKQREFESRLADALQELRAQHEDQVEQYKKELEKTYSAKLDNARQSAERNSNLVGAAHEELQQSRIRID
notes: human lamin A/C, residues 1-300 (head, coil 1a, L1, coil 1b, L12 and part of coil 2); Dimer by SEC-MALS; The vector pProEx-HTa is named for the S143F construct; also called lamin 300 fragment; wild-type lamin 300 fragment; source: E. coli, purified (cobalt-Talon, TEV cleavage, HiTrap Q, SEC)
B2: S143F mutant lamin A/C fragment (residues 1–300) (domain or fragment, human, UniProt P02545 1-300, looked up)
chain: METPSQRRATRSGAQASSTPLSPTRITRLQEKEDLQELNDRLAVYIDRVRSLETENAGLRLRITESEEVVSREVSGIKAAYEAELGDARKTLDSVAKERARLQLELSKVREEFKELKARNTKKEGDLIAAQARLKDLEALLNFKEAALSTALSEKRTLEGELHDLRGQVAKLEAALGEAKKQLQDEMLRRVDAENRLQTMKEELDFQKNIYSEELRETKRRHETRLVEIDNGKQREFESRLADALQELRAQHEDQVEQYKKELEKTYSAKLDNARQSAERNSNLVGAAHEELQQSRIRID
notes: human lamin A/C, residues 1-300, with the disease mutation S143F (a genetic mutation found in patients); Vector pProEx-HTa; Ordered in the crystal: residues 29-229 and 31-229; also called S143F mutant lamin 300 fragment; Lamin S143F (residues 1–300); source: E. coli BL21 (DE3) or B834 (DE3), purified (cobalt-Talon, TEV cleavage, HiTrap Q, SEC)

Data set [1] concerns the molecule itself. Nature of the data set: SEC-MALS; 2 mg/mL sample on Superdex 200 Increase 10/300 GL, 20 mM Tris-HCl (pH 7.5), 150 mM NaCl. (In general: Size exclusion chromatography separates by hydrodynamic size, large species first.)
The target in data set [2] is B1. Nature of the data set: pull-down; hexaHis-tagged lamin 250–400 immobilised on Ni-NTA resin as bait, tagless lamin 300 fragments as prey; 20 mM Tris-HCl (pH 8.0), 50 mM or 150 mM NaCl, 20 mM imidazole in the wash, room temperature, 30 min; SDS-PAGE. The note with it: both partners purified.
For data set [3], the target named is B2. The description is as above. The note with it: both partners purified.

Consider B1, for which, in data set [1], the stoichiometry N – broadly, a count of units in the complex or per binding partner – amounted to 2. With B2, in data set [1], the “stoichiometry N” value was 2.

B3: hexaHis-tagged lamin fragment (residues 250–400) (domain or fragment, human, UniProt P02545 250-400, looked up)
chain: AQHEDQVEQYKKELEKTYSAKLDNARQSAERNSNLVGAAHEELQQSRIRIDSLSAQLSQLQKQLAAKEAKLRDLEDSLARERDTSRRLLAEKEREMAEMRARMQQQLDEYQELLDIKLALDMEIHAYRKLLEGEEERLRLSPSPTSQRSRG
notes: human lamin A/C, residues 250-400 (C-terminal fragment of coil 2); also called His-lamin 2 C fragment; lamin 2 C fragment; source: E. coli, purified
Consider B3, for which the binding result in data set [2] and in data set [3] was “binds” each time.
